In patent publication US7166733B2, “O,O'-Amidomalonate and N,O-Amidomalonate platinum complexes” (priority 2000, dated 2007):
Values joined by “and” are separate entries in the source; they are usually repeats but may differ in a detail not shown here. Equal values may be shown once.

Tests used:
[1] = Percent Pt released versus pH over time in citrate PBS; format: physicochemical; details: 37° C.
Experimental: A stock solution of citrate PBS that was 10 mM in citrate, 20 mM in phosphate, and 100 mM in NaCl was prepared and split into bottles which were then adjusted to the desired pH. The bottles were warmed to 37° C. in an oven and poly(HPMA)-GFLG-Ama=Pt(NH3)2, N,O-chelate, ˜20 kDa, was added to give a concentration of approximately 2 mg of polymer platinum conjugate per mL buffer. The mixtures were well mixed to give colorless solutions. At the indicated times, three approximately 2.5 mL aliquots were removed from the solution at each pH and transferred to previously washed YM-3 ultracentrifuge devices (Amicon) and spun at 5000 RCF and 37° C. for 50 min. Once all samples for all time points have been collected and prepared, the filtrates and stock solutions are analyzed against Pt standards (0–10 ppm) by ICP-OES at the platinum emission line of 214.42 nm. For each time point and at each pH, three samples were prepared and analyzed.

[2] = Platinum release from PBS; format: physicochemical; details: 37° C.
Experimental: The percent of small platinum species released over time was measured by dissolving about 30 mg of the polymer-platinum conjugate in 15 mL of phosphate buffered saline (10 mM phosphate, 123 mM Cl^−) and incubating the solution at 37° C. in a water bath. At indicated times, 2.0 mL aliquots were transferred to a centrifugal filter with a 3 kDa nominal molecular weight cutoff (Centricon YM-3 from Millipore) and spun until >1.5 mL of filtrate had accumulated. The timed filtrates and the original solution were analyzed for platinum by ICP-OES. The percent of small Pt species released was determined using the formula: ((ppm Pt in filtrate)/(ppm Pt in stock solution))×100.

[3] = test system: Bl6FI0 melanoma cells; assay: Clonogenic (colony-formation) assay; format: cell-based, murine; details: 7 days incubation
Experimental: The relative cytotoxic activity of various O,O′—Pt chelate analogs were evaluated in vitro by means of a clonogenic (colony-formation) assay employing a tissue culture of Bl6FI0 melanoma cells. In this way, the activity of the analogs was compared to that of cisplatin and carboplatin. The effect of conversion to an N,O—Pt chelate was also evaluated. Briefly, cells were seeded into culture dishes and allowed to attach. The cultures were incubated for 7 days in medium containing the desired concentration of the test agent. After fixation, the number of cell clusters containing >50 cells was scored as a colony. Each concentration of test agent was assayed in triplicate. The mean number of colonies in each of the triplicate dishes was divided by the mean number of colonies in the control (no test agent) dishes to obtain a percent survival value for each concentration of test agent. The IC50 (concentration resulting in 50% inhibition of growth) of each of the agents was determined by linear regression analysis using the data values directly above and below the 50% survival point.

[4] = Single-dose IV maximum tolerated dose study; format: in vivo; details: mice, highest dose with no drug-induced deaths
From the text: For these studies, the MTD was defined as the highest dose evaluated in which no mouse deaths resulted from drug-induced toxicity.

Substance: poly(HPMA)-GFLG-Ama=Pt(NH3)2, N,O—Pt chelate [Example 4]
- percent Pt released ([1]; pH 3.4, citrate PBS, 1 h): 2.0%
- percent Pt released ([1]; pH 3.4, citrate PBS, 2 h): 4.2 ± 0.1%
- percent Pt released ([1]; pH 3.4, citrate PBS, 4 h): 6.6%
- percent Pt released ([1]; pH 3.4, citrate PBS, 8 h, 100% N,O-chelate, approx. 20 kDa): 12% and 12.0 ± 0.1%
- percent Pt released ([1]; pH 3.4, citrate PBS, 24 h, 100% N,O-chelate, approx. 20 kDa): 30% and 29.1 ± 3.9%
- percent Pt released ([1]; pH 4.4, citrate PBS, 1 h): 0.9 ± 0.1%
- percent Pt released ([1]; pH 4.4, citrate PBS, 2 h): 1.9%
- percent Pt released ([1]; pH 4.4, citrate PBS, 4 h): 3.3 ± 0.4%
- percent Pt released ([1]; pH 4.4, citrate PBS, 8 h): 5.1 ± 1.2%
- percent Pt released ([1]; pH 4.4, citrate PBS, 24 h): 17.0 ± 3.6%
- percent Pt released ([1]; pH 5.4, citrate PBS, 1 h): 0.5%
- percent Pt released ([1]; pH 5.4, citrate PBS, 2 h): 0.9 ± 0.08%
- percent Pt released ([1]; pH 5.4, citrate PBS, 4 h): 1.4 ± 0.2%
- percent Pt released ([1]; pH 5.4, citrate PBS, 8 h): 2.6 ± 0.4%
- percent Pt released ([1]; pH 5.4, citrate PBS, 24 h): 7.3%
- percent Pt released ([1]; pH 6.4, citrate PBS, 1 h): 0.4%
- percent Pt released ([1]; pH 6.4, citrate PBS, 2 h): 0.7 ± 0.07%
- percent Pt released ([1]; pH 6.4, citrate PBS, 4 h): 0.9 ± 0.06%
- percent Pt released ([1]; pH 6.4, citrate PBS, 8 h): 1.3 ± 0.1%
- percent Pt released ([1]; pH 6.4, citrate PBS, 24 h): 2.7 ± 0.1%
- percent Pt released ([1]; pH 7.4, citrate PBS, 1 h): 0.36 ± 0.01%
- percent Pt released ([1]; pH 7.4, citrate PBS, 2 h): 0.5 ± 0.07%
- percent Pt released ([1]; pH 7.4, citrate PBS, 4 h): 0.7 ± 0.04%
- percent Pt released ([1]; pH 7.4, citrate PBS, 8 h): 0.9 ± 0.02%
- percent Pt released ([1]; pH 7.4, citrate PBS, 24 h): 1.6 ± 0.0%
- percent Pt released ([1]; pH 8.2, citrate PBS, 1 h): 0.39 ± 0.0%
- percent Pt released ([1]; pH 8.2, citrate PBS, 2 h): 0.7 ± 0.08%
- percent Pt released ([1]; pH 8.2, citrate PBS, 4 h): 0.7 ± 0.04%
- percent Pt released ([1]; pH 8.2, citrate PBS, 8 h): 0.8 ± 0.16%
- percent Pt released ([1]; pH 8.2, citrate PBS, 24 h): 1.8 ± 0.02%
- Pt release in PBS ([2]; 3 hours): 0.6%
- Pt release in PBS ([2]; 24 hours): 2.0%
- IC50 [3]: 3.4 µM
- maximum tolerated dose (MTD) [4]: 400 mg PVkg
